From patent US20210284688A1, “MUCUS-PENETRATING PEPTIDES AND SCREENING ASSAY” (BOARD OF REGENTS, THE UNIVERSITY OF TEXAS SYSTEM, priority 2016, published 2021) come the findings set out here.

Counter-ions that a name gives are not always drawn. Where no end group is shown, it is not given here.

Data set [1] in a line: Figure 15. The source says: Table printed on a drawing sheet, Figure 15
Data set [2] can be described thus: Figure 17. The text has this: Table printed on a drawing sheet, Figure 17
AK10 and Dextran 40 kDa are controls.
First reader's note: The Sample column holds peptide sequences with SEQ ID NOs as well as non-peptide controls; on the sheet the PBS/CM sub-heads stand in one merged head cell, split here into a second head row.

Regarding “M13 YNSPTHHGGGS (SEQ ID NO: 31) (also: displayed on M13 phage)”, the “De/10^-9 cm^2 s^-1 | CM” value in data set [1] is listed as 1.45 10^-9 cm^2 s^-1. The same measure, in the same setting: with “M13 SSQLSRPGGGS (SEQ ID NO: 30) (also: displayed on M13 phage)” the figure was 1.72 10^-9 cm^2 s^-1.

Turning to `O=C1OC2(c3ccc(O)cc3Oc3cc(O)ccc32)c2ccccc21` [Fluorescein Na Salt], in data set [2], the “De/10^-5 cm^2 s^-1 | CM” value is listed as 1.05 10^-5 cm^2 s^-1. Turning to “M13 ISLPSPTGGGS (SEQ ID NO: 29) (also: displayed on M13 phage)”, the “De/10^-9 cm^2 s^-1 | CM” value in data set [1] was 4.00 10^-9 cm^2 s^-1.
